Measured values published in patent publication US20250355001A1 (GTINVENT, published 2025).
Numbering of substitutions follows the chain as printed.

Assays:
[1] = molecular target: T1, full length human tau protein 2N4R (hT40) (human, UniProt P10636 1-758); test: SPR, hT40 immobilised, mAb analyte
T1 construct: recombinant; also called T441
Experimental: (§1) For anti-tau mAb SPR measurements, htau40 was conjugated to the surface of a CM5 sensor chip using amine coupling as explained previously. Briefly, 2 μg/mL htau40 in 10 mM Sodium acetate buffer (pH 4.0) was passed over the activated chip surface (EDC/NHS) in flow cell 2 for a period for 45 s followed by blocking with 1 M ethanolamine-HCl PH 8.5. Flow cell 1 was set up as reference control and blocked simultaneously. Final immobilisation level of htau40 (Rmax) was approximately 250 RU. […] The mAb was added for a 120 s association period and 600 s dissociation period followed by a regeneration cycle of 30 s injection of glycine buffer pH 1.5 in between each cycle. Binding responses were analysed in Biacore X100 evaluation software and data fitted to a 1:1 binding model to obtain kinetic and affinity characterisation.
For anti-tau mAb SPR measurements (Biacore X100™) and epitope mapping, the same methodologies described above (see Example 16) were followed.

[2] = molecular target: T1, full length human tau protein 2N4R …; test: SPR, hT40 immobilised, mAb analyte; remark: listed apart in the source
Experimental: as §1

[3] = molecular target: T1, full length human tau protein 2N4R …; test: SPR, summary table
Experimental: (§2) The capture antibody was diluted 1/100 in 10 mM Sodium acetate buffer pH 5.0 and passed over the activated chip surface for a period of at least 420 s. Final ligand immobilisation levels over 12,000 RU were deemed to be satisfactory.
(§3) The scAb to be tested was added only to flow cell 2 so that flow cell 1 could act as a control to subtract any interaction with the analyte and the chip surface. […] The multi-cycle protocol was as follows-Three start-up cycles composed of an initial capture, to the desired level, of the scAb to be tested was performed followed by a 30 s injection of glycine buffer pH 2.0 after each cycle to regenerate the chip surface. […] The target was added for a 120 s association period and 420 s dissociation period followed by another regeneration, 30 s injection of glycine buffer pH 2.0 in between each cycle.
(§4) The single cycle kinetics protocol was similar and utilised the same level of scAb capture. […] In single cycle kinetics the regeneration step was performed only after the final analyte concentration was added. Binding responses were analysed in Biacore X100 evaluation software and data fitted to a 1:1 binding model to obtain kinetic and affinity characterisation.

[4] = molecular target: T1, full length human tau protein 2N4R …; test: SPR, scAb captured, tau analyte
Experimental: as §2, §3, §4

dGA (tau 297-390) = dGA (tau 297-390) (human, UniProt P10636 614-707); test: SPR, scAb captured, tau analyte
Sequence of dGA (tau 297-390) (P10636 614-707 limits assumed): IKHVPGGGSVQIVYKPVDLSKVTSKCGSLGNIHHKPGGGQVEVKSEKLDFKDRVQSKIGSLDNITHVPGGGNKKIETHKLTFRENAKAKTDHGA
Experimental: as §2, §3, §4

[5] = molecular target: T1, full length human tau protein 2N4R …; test: Biacore
Experimental: as §2, §3, §4

[6] = molecular target: T1, full length human tau protein 2N4R …; test: sandwich ELISA, S1D12 mAb capture, scAb detection
Experimental: Full length tau (hT40), at 1 μg/ml starting concentration was added to designated wells and double diluted across rest of the plates and left to incubate at R/T for 1 h. A series of detection scAbs with varying epitope recognition properties were added at 10 μg/ml to designated wells (FIG. 22). For colourimetric detection HRP conjugated anti-HuCk secondary antibody was used and the resulting immunoreaction was developed and absorbance at 450 nm measured as described previously. Cut-off point for a positive binding event was an absorbance value of 0.3 following background subtraction. In order to enhance the assay sensitivity, a chemiluminescent detection method was adopted where 50 μL SuperSignal ELISA Femto Substrate (Thermo Scientific) was added to each well following incubation with anti-HuCK HRP antibody and subsequent washing. The luminescence was read using Clariostar Plus microplate reader. A further modification to this protocol was done where various detection scAbs were directly conjugated with HRP and detected using chemiluminescent protocol as before.

T1 sequence (P10636 other isoform, or with tags, fused parts or gaps limits assumed): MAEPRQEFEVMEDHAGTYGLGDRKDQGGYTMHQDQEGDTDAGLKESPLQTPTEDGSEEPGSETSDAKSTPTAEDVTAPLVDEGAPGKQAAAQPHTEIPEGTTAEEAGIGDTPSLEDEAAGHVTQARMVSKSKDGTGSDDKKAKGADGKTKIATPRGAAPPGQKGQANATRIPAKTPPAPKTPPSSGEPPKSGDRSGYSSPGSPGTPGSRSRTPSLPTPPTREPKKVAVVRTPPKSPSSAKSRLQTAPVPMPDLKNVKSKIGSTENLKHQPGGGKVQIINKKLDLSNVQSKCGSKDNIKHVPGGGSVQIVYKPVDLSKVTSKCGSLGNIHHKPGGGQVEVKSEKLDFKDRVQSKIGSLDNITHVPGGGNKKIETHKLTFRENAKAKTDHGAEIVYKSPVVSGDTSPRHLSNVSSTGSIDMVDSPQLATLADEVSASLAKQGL

B1: MD9 mAb (antibody, V domains shown)
VH: QVRLQESGPSLVKSSQTLSLTCTVSGFSLTRESIAWVRQAPGKVPEWLGGVGIDGTSYYSPALKSRLSITRDTSKSQASLSLSSVATEDTAMYYCARNYIDFEYWGPGLLVTVSS
VL: QAVLTQLSSVSGSLGQRISITCSGSSSNVGIYDVSWFQQLPGSGLRTVIYGTNNRPSGVPDRFSGSRSGNTATLTISSLQSEDEAIYYCAAGDSSTIAVFGSGTRLTVLG
[1]
  Kd: 22 nM
  koff: 0.00146 s⁻¹
  kon: 66200 M⁻¹ s⁻¹

B2: CE3 mAb (antibody, mouse IgG2a, V domains shown)
VH: QVRLQESGPSLVKPSQTLSVTCTVSGFSLISNAVGWVRQAPGKVPESLAGCSSDGKCYYNSALKSRLDITRDTSKNQISLSLSSVTTDDAAVYYCTRGYYPVYGYDYLGTIDYWGPGLLVTVSS
VL: QAVLTQPSSVSGSLGQRVSITCSGSSSNVGRNDVAWFQQLPGSGLRTIIYGTTSRPSGIPDRFSGSKSGVTATLTIDSLQAEDEADYFCASGDSSAINDIFGSGTRLTVLG
notes: sheep-mouse IgG2a chimeric mAb
[2]
  Kd: 16.7 nM
  koff: 0.00172 s⁻¹
  kon: 103000 M⁻¹ s⁻¹

B3: S1E12 scAb (scFv, not shown: small tags and cut ends)
scFv: QVQLQESGPSLVKPSQTLSLTCTVSGFSLGSNSVGWVRQAPGKAPEWVAGIDTDGEEGYNPALNSRLSITRDTSKSQVSLSLSSVTSEDTAVYYCGRSYRADGLAYGYVQAIDYWGPGLLVTVSSEGKSSGASGESKVDDRVVRTQPSSVSGSLGQRVSITCSGSFIGISSVGWFQQLPGSGLRTIIVASDGRPSGVPDRFSMSKSGNTATLTISSLQAEDEADYFCGSSDRTQYTGVFGSGTRLTVLG
notes: scAb
[3]
  Kd: 0.829 nM
[4]
  Kd: 0.829 nM
  koff: 0.000319 s⁻¹
  kon: 385000 M⁻¹ s⁻¹
dGA (tau 297-390)
  Kd: 0.543 nM
  koff: 0.00163 s⁻¹
  kon: 2.99e+06 M⁻¹ s⁻¹

B4: 412E10 mAb (antibody, mouse IgG2a, V domains shown)
VH: QVQLQESGPSLVKPSQTLSLTCTVSGFSVISDSVAWVRQAPGKVPEWLGASGSSGNKYYNPALKSRLSITRDTSKSQVSLSLSSVTTEDTAVYYCARGIIAGVDVWGRGLLVTVSS
VL: QAVLTQPSSVSGSLGQRVSITCSGSSSNVGYGNYVGWYQQVPGSAPKLLIYGTAIRASGVPDRFSGSRSGDTATLTITSLQAEDEADYYCASYQSNYAFFGSGTRLTVLG
notes: as for B2
[2]
  Kd: 9 nM
  koff: 0.015 s⁻¹
  kon: 1.66e+06 M⁻¹ s⁻¹

B5: 3bD11 mAb (antibody)
chain: RVRLQGSGPSLVKPSQTLSLTCTVSGFSFDSYYVGWVRQAPGKALEWLGNIYSTGRAFYNPALKSRLSITRDTSKSQVSLSVSSVTIEDTALYYCVRGSYYHGGGNGMVDFFDYWSPGLLVTVSSEGKSSGASGESKVDDQVVRTQPSSVSGSLGQRVSITCSGSSSNVGYGNYVGWFQQVPGSAPKLLIYAATSRASGVPDRFSGSRSGNTATLTIDSLQAEDEADYYCSSYQRGNTGVFGSGTRLTVLG
[1]
  Kd: 1.49 nM
  koff: 0.00398 s⁻¹
  kon: 2.67e+06 M⁻¹ s⁻¹

B6: 3aH6 mAb (antibody)
heavy: QVQLQESGPSLVKPSQTLSLTCTVSGFSLSSNGVGWVRQAPGKVPEWLGDISSVGKKYANPALKSRLSFTRDTSKSQVSLSLSSVTTEDTAVYYCVKCRDGGVTYGYDIDYWGPGLLVTASSAKTTAPSVYPLAPVCGDTTGSSVTLGCLVKGYFPEPVTLTWNSGSLSSGVHTFPAVLQSDLYTLSSSVTVTSSTWPSQSITCNVAHPASSTKVDKKIEPRGPTIKPCPPCKCPAPNLLGGPSVFIFPPKIKDVLMISLSPIVTCVVVDVSEDDPDVQISWFVNNVEVHTAQTQTHREDYNSTLRVVSALPIQHQDWMSGKEFKCKVNNKDLPAPIERTISKPKGSVRAPQVYVLPPPEEEMTKKQVTLTCMVTDFMPEDIYVEWTNNGKTELNYKNTEPVLDSDGSYFMYSKLRVEKKNWVERNSYSCSVVHEGLHNHHTTKSFSRTPGK
light: QAVVTQPSSVSGSLGQSVSITCSGSSGNVGYGDYVSWFQQFHGSAPKLLIYGATNLASGVPARFSGSRSGNTATLTISSLHAEDEADYYCASYDSSSGGVFGSGTRLTVLGGQPKSSPSVTLFPPSSEELETNKATLVCTITDFYPGVVTVDWKVDGTPVTQGMETTQPSKQSNNKYMASSYLTLTARAWERHSSYSCQVTHEGHTVEKSLSRADCS
[1]
  Kd: 0.049 nM
  koff: 0.000152 s⁻¹
  kon: 3.13e+06 M⁻¹ s⁻¹

B7: CC7 scAb (scFv, not shown: small tags and cut ends)
scFv: QVQLQESGPSLVKPSQTLSLTCTVSGFSLTSNAVIWVRQAPGKAPEWVALIDVDGDAAYDPALKSRLSITRDTSKSQVSLSLRSVTTEDTAVYYCARDYGSWGYVSDIDYWGPGLLVTVSSEGKSSGASGESKVDDRVVRTQPSSVSGSLGQRVSITCSGSYITGSSVGWFQQVPGSGLKTVIYDNNDRPSGVPDRFSGSKSGDTATLTISSLQAEDEADYYCASYDTSNIGLFGSGTRLTVLG
notes: scAb
[5]
  Kd: 1.2 nM
[3]
  Kd: 1.23 nM
[4]
  Kd: 1.23 nM
  koff: 0.000366 s⁻¹
  kon: 296000 M⁻¹ s⁻¹
[6]
  LoD chemiluminescence detection: 3.33 ng/mL
  LoD colourimetric detection: 6 ng/mL

B8: 3bG4 mAb (antibody, mouse IgG2a, V domains shown)
VH: QVQLQESGPSLVKPSQTLSLTCTISGFSLISNGVGWVRQAPGKVPEWVGDIASSGKAYSNPALKSRLSITRDTSKSQVSLSLRSVTTEDTAVYYCVRCRDGGVTYGYDIDYWGPGLLVTVSS
VL: QAVLTQPSSVSKSLGQSVSITCSGSTSNVGSGNDVSWFQQVPGSAPKLLFYGATNRASGVPDRFSGSRSGNTATLTITSLQAEDEADYYCGSYDSNSGGIFGSGTRLTVLG
notes: as for B2
[1]
  Kd: 0.065 nM
  koff: 0.000296 s⁻¹
  kon: 4.54e+06 M⁻¹ s⁻¹

B9: 3aG3 mAb (antibody, V domains shown)
VH: B8 VH with I24V, I30S, A52S, S59A, S74A, S76T, S79F, R83S, T104S
VL: QAVLTQPPSVSGSPGQRVSITCSGSSSNIGGGNYLSWFQQVPGSAPKLLIYGATSRASGVPDRFSGSRSGNTATLTISSLQAEDEADYYCASFDTSSGGIFGAGTRLTVLG
[1]
  Kd: 0.31 nM
  koff: 0.00475 s⁻¹
  kon: 1.53e+07 M⁻¹ s⁻¹

B10: CE2 mAb (antibody, mouse IgG2a, V domains shown)
VH: QVQLQESGPSLVKPSQTLSLTCTVSGFSLTNYPVGWVRQAPGKALEWIGNIENDGSANYASALKSRLSITRDTSKNQVSLSLSSATTEDTAVYYCGREFGGSDGYTYFVDIDYWGPGLLVTVSS
VL: QAVLTQPSSVSKSLGQSVSITCSGSSSNVGYGNYVSWFQQVPGSAPKILIYGATSRASGVPDRFSGSRSGNTATLTITSLQAEDEADYYCASYDGSSSGVFGSGTRLTVLG
notes: as for B2
[2]
  Kd: 11 nM
  koff: 0.00522 s⁻¹
  kon: 458000 M⁻¹ s⁻¹

B11: E1B8 mAb (antibody, V domains shown)
VH: B10 VH
VL: B10 VL
[1]
  Kd: 4.22 nM
  koff: 0.00137 s⁻¹
  kon: 324000 M⁻¹ s⁻¹
